Data reported in article PMC9722645 (Structure (London, England : 1993), 2022).
Values belong to the molecule of their own block, whether it stands above or below them. Non-standard residues stand in square brackets, D forms with d. pY = N[C@@H](Cc1ccc(OP(=O)(O)O)cc1)C(=O)O

Columns and labels:
[1] = target: p190RhoGAP pY1087 peptide (Homo sapiens) (UniProt Q9NRY4); assay: ITC; conditions: cited from earlier work
[2] = target: p190RhoGAP pY1105 peptide (Homo sapiens) (UniProt Q9NRY4); assay: ITC; conditions: cited from earlier work
Ras = conditions: ref [3],[4]; cited from earlier work
[3] = target: T1, p120RasGAP SH2-SH3-SH2 region (residues 174–444) (human, UniProt P20936 174-444, C236S | C261S | C372S | C402S); assay: ITC
T1 sequence (looked up): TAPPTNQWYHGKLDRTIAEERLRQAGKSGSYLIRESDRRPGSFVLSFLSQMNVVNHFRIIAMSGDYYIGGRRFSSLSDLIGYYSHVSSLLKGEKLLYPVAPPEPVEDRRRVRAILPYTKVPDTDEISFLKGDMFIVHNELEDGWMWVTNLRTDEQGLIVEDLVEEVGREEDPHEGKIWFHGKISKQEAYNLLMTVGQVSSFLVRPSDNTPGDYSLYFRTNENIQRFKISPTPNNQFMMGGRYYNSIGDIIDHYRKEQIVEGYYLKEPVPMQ

p190RhoGAP pY1087 peptide (Homo sapiens), sequence (Q9NRY4 whole entry): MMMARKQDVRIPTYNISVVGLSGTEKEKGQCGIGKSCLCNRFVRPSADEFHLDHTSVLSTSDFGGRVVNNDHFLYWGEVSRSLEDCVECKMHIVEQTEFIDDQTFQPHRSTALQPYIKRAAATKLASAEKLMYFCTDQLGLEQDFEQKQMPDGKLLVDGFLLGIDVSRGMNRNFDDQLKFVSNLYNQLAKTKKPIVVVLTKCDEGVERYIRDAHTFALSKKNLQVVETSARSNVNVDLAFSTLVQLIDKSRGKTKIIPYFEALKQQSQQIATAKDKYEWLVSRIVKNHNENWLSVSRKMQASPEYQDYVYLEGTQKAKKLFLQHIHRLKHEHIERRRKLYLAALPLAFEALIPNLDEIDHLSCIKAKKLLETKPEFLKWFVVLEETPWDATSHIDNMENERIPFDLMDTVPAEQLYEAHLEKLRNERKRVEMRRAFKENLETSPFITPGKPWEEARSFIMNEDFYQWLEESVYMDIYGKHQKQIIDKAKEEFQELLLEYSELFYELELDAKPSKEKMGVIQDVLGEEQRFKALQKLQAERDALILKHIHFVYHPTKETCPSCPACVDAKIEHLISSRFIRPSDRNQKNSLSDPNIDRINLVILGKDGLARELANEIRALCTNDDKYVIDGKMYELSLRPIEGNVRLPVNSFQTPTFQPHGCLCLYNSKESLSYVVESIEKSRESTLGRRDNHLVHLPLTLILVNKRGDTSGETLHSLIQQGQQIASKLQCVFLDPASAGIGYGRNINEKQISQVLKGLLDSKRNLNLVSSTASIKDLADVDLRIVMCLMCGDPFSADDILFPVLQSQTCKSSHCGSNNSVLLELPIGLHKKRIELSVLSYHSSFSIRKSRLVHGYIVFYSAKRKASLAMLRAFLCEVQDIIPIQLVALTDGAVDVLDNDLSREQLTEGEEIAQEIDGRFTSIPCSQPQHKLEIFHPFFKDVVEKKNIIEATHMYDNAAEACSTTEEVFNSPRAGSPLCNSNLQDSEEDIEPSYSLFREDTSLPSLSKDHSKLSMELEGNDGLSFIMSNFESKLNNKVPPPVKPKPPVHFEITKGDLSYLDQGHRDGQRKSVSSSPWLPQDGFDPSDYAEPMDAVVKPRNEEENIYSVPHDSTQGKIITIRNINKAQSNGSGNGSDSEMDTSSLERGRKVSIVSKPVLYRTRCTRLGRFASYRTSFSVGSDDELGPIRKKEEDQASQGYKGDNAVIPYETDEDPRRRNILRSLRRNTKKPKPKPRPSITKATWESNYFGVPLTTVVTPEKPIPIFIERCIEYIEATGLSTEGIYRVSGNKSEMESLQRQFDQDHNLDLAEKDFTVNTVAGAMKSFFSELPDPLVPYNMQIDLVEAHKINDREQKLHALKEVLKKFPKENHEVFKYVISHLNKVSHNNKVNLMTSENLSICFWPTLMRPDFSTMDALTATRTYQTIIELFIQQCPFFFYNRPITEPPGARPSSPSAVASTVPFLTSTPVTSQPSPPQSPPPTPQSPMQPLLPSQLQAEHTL
p190RhoGAP pY1105 peptide (Homo sapiens), sequence (Q9NRY4 whole entry): as above

Molecule: p120RasGAP C-SH2 (from UniProt P20936)
Kd [1]: 0.15 µM

Molecule: p120RasGAP N-SH2 (from UniProt P20936)
Kd [2]: 0.3 µM

B1: p120RasGAP: key regulatory protein of the Ras subfamily of small guanine-nucleotide binding GTPases (protein)
chain: T1 sequence (looked up)
modifications: left off: His6, N-terminal, cleaved
enhancement of GTPase activity of Ras (Ras): two to five orders of magnitude

dH [3]: -130 kJ/mol
Molecule: Ac-DPSD[pY]AEPMDAVVKPRNEEENI[pY]SVPHDS-NH2 [doubly-phosphorylated p190RhoGAP-A peptide (residues 1083–1111, pY1087 and pY1105)]
